Positions count from the first letter of the chain named.
How the values were obtained:
[1] = molecular target: T1, H-exIL-23R, N-terminally His6-tagged extracellular domain of human IL-23 receptor (residues 24 to 350) (human, UniProt Q5VWK5 24-350); assay: ELISA, immobilized exIL-23R (Figure 1 legend)
T1 construct: range 24-350; also called recombinant extracellular IL-23 receptor; not shown: N-terminal His6 tag
T1 sequence (looked up): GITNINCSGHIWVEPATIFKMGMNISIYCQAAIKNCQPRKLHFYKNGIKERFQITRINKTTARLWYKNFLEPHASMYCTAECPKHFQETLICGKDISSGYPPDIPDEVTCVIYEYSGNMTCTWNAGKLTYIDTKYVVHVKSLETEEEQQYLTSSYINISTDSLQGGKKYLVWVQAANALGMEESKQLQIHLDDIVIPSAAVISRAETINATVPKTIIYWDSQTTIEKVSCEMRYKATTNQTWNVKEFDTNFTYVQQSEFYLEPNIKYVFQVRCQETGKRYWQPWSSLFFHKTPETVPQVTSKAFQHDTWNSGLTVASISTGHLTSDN

[2] = molecular target: T2, recombinant human IL-23R-IgG chimera (R&D Systems) (human, UniProt Q5VWK5 24-353, glycosylated); assay: SPR, REX125-TolA-AVI immobilized, IL-23R-IgG chimera flowed, sodium acetate buffer pH 5.0, 25°C; more complex interaction mode
T2 construct: bought; soluble, glycosylated, secreted by an NS0-derived mouse myeloma cell line; also called IL-23R-IgG receptor chimera

[3] = molecular target: T3, native human IL-23 receptor on the surface of cultured human cells (K-562, THP-1, Jurkat) and primary human … (human, UniProt Q5VWK5 24-629); assay: cell-based or functional assay
T3 sequence (looked up): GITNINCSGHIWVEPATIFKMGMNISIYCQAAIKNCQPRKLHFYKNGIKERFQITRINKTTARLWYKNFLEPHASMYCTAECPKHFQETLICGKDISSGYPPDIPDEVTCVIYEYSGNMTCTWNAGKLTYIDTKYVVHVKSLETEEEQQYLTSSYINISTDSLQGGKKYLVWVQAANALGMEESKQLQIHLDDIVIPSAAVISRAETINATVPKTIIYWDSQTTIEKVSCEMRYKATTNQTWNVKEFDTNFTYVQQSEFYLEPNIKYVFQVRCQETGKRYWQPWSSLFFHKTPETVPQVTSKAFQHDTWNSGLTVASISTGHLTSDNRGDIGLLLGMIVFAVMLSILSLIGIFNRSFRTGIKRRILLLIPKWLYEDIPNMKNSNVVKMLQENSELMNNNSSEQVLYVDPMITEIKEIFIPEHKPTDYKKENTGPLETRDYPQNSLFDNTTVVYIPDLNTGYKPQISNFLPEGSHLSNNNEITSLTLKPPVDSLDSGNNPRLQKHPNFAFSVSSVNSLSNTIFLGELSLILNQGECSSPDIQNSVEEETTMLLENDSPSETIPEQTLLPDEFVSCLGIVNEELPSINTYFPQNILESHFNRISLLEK

[4] = molecular target: T2, recombinant human IL-23R-IgG chimera …; assay: SPR, REX009-TolA-AVI immobilized, IL-23R-IgG chimera 20-200 nM flowed, sodium acetate buffer pH 5.0, 25°C, 1:1 model, global fit
[5] = molecular target: T1, H-exIL-23R, N-terminally His6-tagged …; assay: ELISA, immobilized H-exIL-23R; confirmed in the reversed setup
[6] = molecular target: T3, native human IL-23 receptor on the …; assay: flow cytometry on THP-1 and K-562 cells, 10 µg/ml DH-p19, anti-p19 mAb and Cy5 anti-mouse IgG

B1: DH-MBP-p19, double His6-maltose-binding protein-p19 fusion with C-terminal 40 aa prolongation (ligand, human)
chain: RAVPGGSSPAWTQCQQLSQKLCTLAWSAHPLVGHMDLREEGDEETTNDVPHIQCGDGCDPQGLRDNSQFCLQRIHQGLIFYEKLLGSDIFTGEPSLLPDSPVGQLHASLLGLSQLLQPEGHHWETQQIPSLSPSQPWQRLLLRFKILRSLQAFVAVAARVFAHGAATLSPLEKKTCTSRASSTTTTTTEIRLLTKPERKLSWLLPPLSNN
notes: 69 kDa, soluble, E. coli BL21(DE3), Ni-NTA purified; also called soluble p19; p19-MBP fusion protein; not shown: N-terminal double His6 tag; followed by TEV site and cloning-site residues that are not pri
[1]
  binding result: binds

B2: His6-REX125-TolA-AVI (designed binder)
chain: LAEAKVLANRELDKYGVSDHYKNWINPARRVRPVKWLIDAILAALPQKQAEEAAAKAAADAKAKAEADAKAAEEAAKKAAADAKKKAEAEAAKAAAEAQKKAEAAAAALKKKAEAAEAAAAEARKKAATEAAEKAKAEAEKKAAAEKAAADKKAAAEKAAADKKAAEKAAAEKAAADKKAAAEKAAADKKAAAAKAAAEKAAAAKAAAEADDIFGELSSGKNAPKTGGGAKGNNASPAGSGNTKNNGASGADINNYAGQIKSAIESKFYDASSYAGKTCTLRIKLAPDGMLLDIKPEGGDPALCQAALAAAKLAKIPKPPSQAVYEVFKNAPLDFKPGLNDIFEAQKIEWHE
modifications: in vivo biotinylated at the AviTag (BirA)
notes: also called REX-TolA-AVI; not shown: N-terminal His6 tag
[2]
  Kd: ~1 nM
[3]
  Th-17+ cell expansion (IL-17-producing cells) in PBMC suspensions after 3 days, normalized to IL-23 only = 1: 0.42 normalized cell count (IL-23 only = 1)
  Th-17+ cell expansion in separated T-cell samples after 3 days, normalized to IL-23 only = 1: 0.65 normalized cell count (IL-23 only = 1)

B3: His6-REX009-TolA-AVI (designed binder)
chain: B2 chain with H20Y, W24R, R29C, R30H, R32L, P33S, W36S, L37N, A40W, A44S
modifications: in vivo biotinylated at the AviTag (BirA)
notes: as for B2
[4]
  Kd: 1.3 nM
[3]
  Th-17+ cell expansion (IL-17-producing cells) in PBMC suspensions after 3 days, normalized to IL-23 only = 1: 0.62 normalized cell count (IL-23 only = 1)
  Th-17+ cell expansion in separated T-cell samples after 3 days, normalized to IL-23 only = 1: 0.8 normalized cell count (IL-23 only = 1)

B4: His6-REX115-TolA-AVI (designed binder, not shown: small tags and cut ends)
chain: B2 chain with H20V, W24T, P27I, R29I, R30P, P33V, W36R, L37V, A40W, A44V
modifications: in vivo biotinylated at the AviTag (BirA)
[3]
  Th-17+ cell expansion (IL-17-producing cells) in PBMC suspensions after 3 days, normalized to IL-23 only = 1: 0.55 normalized cell count (IL-23 only = 1)
  Th-17+ cell expansion in separated T-cell samples after 3 days, normalized to IL-23 only = 1: 0.69 normalized cell count (IL-23 only = 1)

B5: DH-p19, mature p19 subunit of human IL-23 with N-terminal double-His6-TEV tag (ligand, UniProt Q9NPF7 20-189, looked up)
chain: RAVPGGSSPAWTQCQQLSQKLCTLAWSAHPLVGHMDLREEGDEETTNDVPHIQCGDGCDPQGLRDNSQFCLQRIHQGLIFYEKLLGSDIFTGEPSLLPDSPVGQLHASLLGLSQLLQPEGHHWETQQIPSLSPSQPWQRLLLRFKILRSLQAFVAVAARVFAHGAATLSP
notes: mature; not shown: N-terminal double-His6-TEV purification tag
[5]
  binding result: binds
[6]
  binding result: binds
